Reference: patent US20240400614A1, “CLEAVABLE PEPTIDES AND METHODS OF USE THEREOF” (Bright Peak Therapeutics AG, priority 2023, published 2024)
Square brackets hold non-standard residues; d marks the D form. Ends that are not written are not given here. Tyr(3-NO2) = N[C@@H](Cc1ccc(O)c([N+](=O)[O-])c1)C(=O)O; Nle = CCCC[C@H](N)C(=O)O; 2Abz = Nc1ccccc1C(=O)O

Experiments:
Assay type in all cases: biochemical
MMP-7 = target: T1, MMP-7 (Homo sapiens, UniProt P09237); experiment: FRET peptide cleavage efficiency with MMP-7 (standard pH 7.5; also pH 6.5)
T1 construct: purchased SIGMA CC1059
T1 sequence (P09237 95-267): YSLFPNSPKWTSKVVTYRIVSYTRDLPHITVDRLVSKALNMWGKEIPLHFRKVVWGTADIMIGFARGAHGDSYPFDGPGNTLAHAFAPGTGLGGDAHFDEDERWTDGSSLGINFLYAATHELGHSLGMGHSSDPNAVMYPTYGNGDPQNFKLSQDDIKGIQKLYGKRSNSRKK

MMP-2 = target: T2, MMP-2 (Homo sapiens, UniProt P08253); experiment: FRET peptide cleavage efficiency with MMP-2
T2 construct: purchased SIGMA PF023
T2 sequence (P08253 110-660): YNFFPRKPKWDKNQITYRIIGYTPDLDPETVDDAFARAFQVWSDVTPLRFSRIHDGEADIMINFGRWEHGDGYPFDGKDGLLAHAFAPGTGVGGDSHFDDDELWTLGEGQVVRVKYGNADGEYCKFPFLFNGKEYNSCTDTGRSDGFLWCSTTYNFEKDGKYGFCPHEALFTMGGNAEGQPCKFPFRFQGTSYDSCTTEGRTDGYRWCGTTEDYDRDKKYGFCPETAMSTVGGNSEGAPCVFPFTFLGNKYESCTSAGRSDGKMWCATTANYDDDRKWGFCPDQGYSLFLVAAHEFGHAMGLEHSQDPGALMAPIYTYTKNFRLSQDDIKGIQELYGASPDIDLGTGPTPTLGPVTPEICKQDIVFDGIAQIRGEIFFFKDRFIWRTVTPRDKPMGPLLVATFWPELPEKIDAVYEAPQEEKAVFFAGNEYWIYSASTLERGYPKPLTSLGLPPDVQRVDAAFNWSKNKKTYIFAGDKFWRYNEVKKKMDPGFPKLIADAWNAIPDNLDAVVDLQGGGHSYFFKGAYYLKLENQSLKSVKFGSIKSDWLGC

uPA = uPA (Homo sapiens, UniProt P00749); experiment: FRET peptide cleavage efficiency with uPA
matriptase = target: T3, matriptase (Homo sapiens, UniProt Q9Y5Y6); experiment: FRET peptide cleavage efficiency with matriptase
T3 construct: purchased R&D Systems 3946-SEB
T3 sequence (Q9Y5Y6 615-855 limits assumed): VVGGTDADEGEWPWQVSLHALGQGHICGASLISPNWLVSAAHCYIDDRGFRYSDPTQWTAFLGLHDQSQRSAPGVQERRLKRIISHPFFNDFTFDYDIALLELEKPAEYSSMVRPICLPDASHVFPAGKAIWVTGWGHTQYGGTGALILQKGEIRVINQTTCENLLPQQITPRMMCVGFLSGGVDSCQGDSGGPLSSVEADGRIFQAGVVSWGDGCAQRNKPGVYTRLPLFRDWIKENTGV

MMP-9 = target: T4, MMP-9 (Homo sapiens, UniProt P14780); experiment: FRET peptide cleavage efficiency with MMP-9 (standard pH 7.5; also pH 6.5)
T4 construct: purchased SIGMA PF024
T4 sequence (P14780 94-707): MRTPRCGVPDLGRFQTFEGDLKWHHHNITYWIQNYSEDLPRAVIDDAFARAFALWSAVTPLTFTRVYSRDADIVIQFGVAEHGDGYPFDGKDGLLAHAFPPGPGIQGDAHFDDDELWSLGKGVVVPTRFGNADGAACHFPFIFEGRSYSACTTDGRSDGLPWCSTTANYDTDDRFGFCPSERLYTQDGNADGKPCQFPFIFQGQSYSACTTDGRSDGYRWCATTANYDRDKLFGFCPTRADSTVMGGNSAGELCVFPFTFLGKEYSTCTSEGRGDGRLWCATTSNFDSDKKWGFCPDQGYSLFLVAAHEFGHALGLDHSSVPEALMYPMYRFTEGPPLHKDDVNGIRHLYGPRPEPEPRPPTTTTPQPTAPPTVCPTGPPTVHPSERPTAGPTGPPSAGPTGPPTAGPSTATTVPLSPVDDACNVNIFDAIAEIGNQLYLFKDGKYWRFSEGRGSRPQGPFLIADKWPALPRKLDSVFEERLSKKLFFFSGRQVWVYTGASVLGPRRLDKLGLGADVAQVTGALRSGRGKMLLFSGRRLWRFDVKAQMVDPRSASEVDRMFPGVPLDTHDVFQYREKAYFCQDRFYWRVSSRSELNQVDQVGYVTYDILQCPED

[1] = t = 15 min, standard conditions (Table 8)
[2] = t = 60 min, standard conditions (Table 8)
[3] = t = 120 min, standard conditions (Table 8)

For “SGRVLRKAGPQPLVD ([2Abz]SGRVLRKAGPQPLVD[Tyr(3-NO2)]-NH2) [LNK003]”, the “% cleavage MMP-7 t = 15 min” value (MMP-7; t = 15 min (Table 9)) was 19%, the “% cleavage MMP-7 t = 60 min” value (MMP-7; t = 60 min (Table 9)) was 62% and the “% cleavage MMP-7 t = 120 min” value (MMP-7; t = 120 min (Table 9)) was 86%. For the same substance, the “% cleavage MMP-2 t = 15 min” value (MMP-2; pH 6.5, t = 15 min (Table 7)) was 5%, the “% cleavage MMP-2 t = 60 min” value (MMP-2; pH 6.5, t = 60 min (Table 7)) was 39% and the “% cleavage MMP-2 t = 15 min” value (MMP-2; pH 7.5, t = 15 min (Table 7)) was 6%. The “% cleavage MMP-2 t = 60 min” value (MMP-2; pH 7.5, t = 60 min (Table 7)) was 28%, the “% cleavage MMP-2 t = 15 min” value (MMP-2; t = 15 min (Table 9)) was 7% and the “% cleavage MMP-2 t = 15 min” value (MMP-2; t = 15 min, 200 uM linker, 1 ug/ml protease, 37° C., buffer C pH 7.5) was 8%. For the same substance, the “% cleavage MMP-2 t = 60 min” value (MMP-2; t = 60 min (Table 9)) was 34%, the “% cleavage MMP-2 t = 60 min” value (MMP-2; t = 60 min, 200 uM linker, 1 ug/ml protease, 37° C., buffer C pH 7.5) was 38% and the “% cleavage MMP-2 t = 120 min” value (MMP-2; t = 120 min (Table 9)) was 59%. The “% cleavage MMP-2 t = 120 min” value (MMP-2; t = 120 min, 200 uM linker, 1 ug/ml protease, 37° C., buffer C pH 7.5) was 65%, the “% cleavage uPA t = 60 min” value (uPA; pH 6.5, t = 60 min (Table 7)) was 0% and the “% cleavage uPA t = 120 min” value (uPA; pH 6.5, t = 120 min (Table 7)) was 0%. For the same substance, the “% cleavage uPA t = 60 min” value (uPA; pH 7.5, t = 60 min (Table 7)) was 0%, the “% cleavage uPA t = 120 min” value (uPA; pH 7.5, t = 120 min (Table 7)) was 0% and the “% cleavage uPA t = 15 min” value (uPA; t = 15 min, 200 uM linker, 1 ug/ml protease, 37° C., buffer A pH 8.5) was 3%. The “% cleavage uPA t = 60 min” value (uPA; t = 60 min, 200 uM linker, 1 ug/ml protease, 37° C., buffer A pH 8.5) was 10%, the “% cleavage uPA t = 120 min” value (uPA; t = 120 min, 200 uM linker, 1 ug/ml protease, 37° C., buffer A pH 8.5) was 20% and the “% cleavage Matriptase t = 15 min” value (matriptase; pH 6.5, t = 15 min (Table 7)) was 48%. For the same substance, the “% cleavage Matriptase t = 60 min” value (matriptase; pH 6.5, t = 60 min (Table 7)) was 93%, the “% cleavage Matriptase t = 15 min” value (matriptase; pH 7.5, t = 15 min (Table 7)) was 98% and the “% cleavage Matriptase t = 60 min” value (matriptase; pH 7.5, t = 60 min (Table 7)) was 100%. For the same substance, the “% cleavage Matriptase t = 15 min” value (matriptase; t = 15 min, 200 uM linker, 1 ug/ml protease, 37° C., buffer B pH 9.0) was 96%, the “% cleavage Matriptase t = 60 min” value (matriptase; t = 60 min, 200 uM linker, 1 ug/ml protease, 37° C., buffer B pH 9.0) was 91% and the “% cleavage Matriptase t = 120 min” value (matriptase; 200 uM linker, 1 ug/ml protease, 37° C., buffer B pH 9.0) was 88%. For the same substance, the “% cleavage MMP-9 t = 15 min” value (MMP-9; t = 15 min (Table 9)) was 22%, the “% cleavage MMP-9 t = 60 min” value (MMP-9; t = 60 min (Table 9)) was 72% and the “% cleavage MMP-9 t = 120 min” value (MMP-9; t = 120 min (Table 9)) was 93%.

“RGRKPY-Nle-LQG ([2Abz]RGRKPY[Nle]LQG[Tyr(3-NO2)]-NH2) [LNK036]” was tested, and the “% cleavage MMP-7 t = 15 min” value (MMP-7; t = 15 min (Table 9)) was 34%, the “% cleavage MMP-7 t = 15 min” value (MMP-7; [1]) was 34% and the “% cleavage MMP-7 t = 60 min” value (MMP-7; t = 60 min (Table 9)) was 88%. For the same substance, the “% cleavage MMP-7 t = 60 min” value (MMP-7; [2]) was 88%, the “% cleavage MMP-7 t = 120 min” value (MMP-7; t = 120 min (Table 9)) was 100% and the “% cleavage MMP-7 t = 120 min” value (MMP-7; [3]) was 100%. The “% cleavage MMP-2 t = 15 min” value (MMP-2; t = 15 min (Table 9)) was 27%, the “% cleavage MMP-2 t = 60 min” value (MMP-2; t = 60 min (Table 9)) was 70% and the “% cleavage MMP-2 t = 60 min” value (MMP-2; [2]) was 70%. For the same substance, the “% cleavage MMP-2 t = 120 min” value (MMP-2; t = 120 min (Table 9)) was 88%, the “% cleavage MMP-2 t = 120 min” value (MMP-2; [3]) was 88% and the “% vcleavage uPA t = 15 min” value (uPA; [1]) was 0%. For the same substance, the “% cleavage uPA t = 60 min” value (uPA; [2]) was 0%, the “% cleavage uPA t = 120 min” value (uPA; [3]) was 0% and the “% cleavage Matriptase t = 15 min” value (matriptase; [1]) was 76%. For the same substance, the “% cleavage Matriptase t = 60 min” value (matriptase; [2]) was 100%, the “% cleavage Matriptase t = 120 min” value (matriptase; standard conditions (Table 8)) was 100% and the “% cleavage MMP-9 t = 15 min” value (MMP-9; t = 15 min (Table 9)) was 28%. For the same substance, the “% cleavage MMP-9 t = 15 min” value (MMP-9; [1]) was 28%, the “% cleavage MMP-9 t = 60 min” value (MMP-9; t = 60 min (Table 9)) was 87% and the “% cleavage MMP-9 t = 60 min” value (MMP-9; [2]) was 87%. The “% cleavage MMP-9 t = 120 min” value (MMP-9; t = 120 min (Table 9)) was 100% and the “% cleavage MMP-9 t = 120 min” value (MMP-9; [3]) was 100%.

For “RGRKPQPLVD ([2Abz]RGRKPQPLVD[Tyr(3-NO2)]-NH2) [LNK039]”, the “% cleavage MMP-7 t = 15 min” value (MMP-7; t = 15 min (Table 9)) was 35%, the “% cleavage MMP-7 t = 15 min” value (MMP-7; [1]) was 35% and the “% cleavage MMP-7 t = 60 min” value (MMP-7; t = 60 min (Table 9)) was 80%. The “% cleavage MMP-7 t = 60 min” value (MMP-7; [2]) was 80%, the “% cleavage MMP-7 t = 120 min” value (MMP-7; t = 120 min (Table 9)) was 96% and the “% cleavage MMP-7 t = 120 min” value (MMP-7; [3]) was 96%. For the same substance, the “% cleavage MMP-2 t = 15 min” value (MMP-2; t = 15 min (Table 9)) was 10%, the “% cleavage MMP-2 t = 60 min” value (MMP-2; t = 60 min (Table 9)) was 38% and the “% cleavage MMP-2 t = 60 min” value (MMP-2; [2]) was 38%. For the same substance, the “% cleavage MMP-2 t = 120 min” value (MMP-2; t = 120 min (Table 9)) was 61%, the “% cleavage MMP-2 t = 120 min” value (MMP-2; [3]) was 61% and the “% vcleavage uPA t = 15 min” value (uPA; [1]) was 0%. The “% cleavage uPA t = 60 min” value (uPA; [2]) was 0%, the “% cleavage uPA t = 120 min” value (uPA; [3]) was 0% and the “% cleavage Matriptase t = 15 min” value (matriptase; [1]) was 77%. For the same substance, the “% cleavage Matriptase t = 60 min” value (matriptase; [2]) was 100%, the “% cleavage Matriptase t = 120 min” value (matriptase; standard conditions (Table 8)) was 100% and the “% cleavage MMP-9 t = 15 min” value (MMP-9; t = 15 min (Table 9)) was 25%. For the same substance, the “% cleavage MMP-9 t = 15 min” value (MMP-9; [1]) was 25%, the “% cleavage MMP-9 t = 60 min” value (MMP-9; t = 60 min (Table 9)) was 74% and the “% cleavage MMP-9 t = 60 min” value (MMP-9; [2]) was 74%. For the same substance, the “% cleavage MMP-9 t = 120 min” value (MMP-9; t = 120 min (Table 9)) was 94% and the “% cleavage MMP-9 t = 120 min” value (MMP-9; [3]) was 94%.
